Experimental data reported in patent US20130071405A1 (Eli Lilly, published 2013).

What was measured:
[1] = biological target: Cyno PCSK9 (cynomolgus monkey); experiment: SPR, 37 C, physiological buffer, n=4, Avg ± SD
Rat PCSK9 = Rat PCSK9 (rat, UniProt P59996 31-691, limits assumed); experiment: SPR, 25 C, n=2
mature hPCSK9 C-term His = biological target: T1, mature hPCSK9 C-term His (human, UniProt Q8NBP7 29-692); experiment: binding kinetics (method not named in Example 3)
T1 construct: also called intact human PCSK9; intact PCSK9

[2] = biological target: T2, hPCSK9 160-181 synthetic peptide (human); experiment: binding kinetics to synthetic peptide, reference intact human PCSK9
T2 construct: Numbered on complete human PCSK9 including the twenty-eight amino acid signal peptide
T2 peptide: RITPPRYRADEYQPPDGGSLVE

Mouse PCSK9 = Mouse PCSK9 (mouse, UniProt Q80W65 35-694, limits assumed); experiment: SPR, 25 C, n=3
[3] = biological target: T3, Recombinant full length PCSK9, C-terminal HIS-tagged (HEK 293 stable cell line) (human, UniProt Q8NBP7 31-692); experiment: AlphaLISA, inhibition of PCSK9 (1 nM) binding to FLAG-tagged LDLR extracellular domain (1 nM)
T3 construct: also called C-terminal HIS-tagged recombinant human PCSK9; not shown: C-terminal HIS tag

Human PCSK9 = Human PCSK9 (human, UniProt Q8NBP7 31-692); experiment: SPR, 37 C, physiological buffer, n=6, Avg ± SD
[4] = biological target: T4, hPCSK9 166-181 synthetic peptide (human); experiment: binding kinetics to synthetic peptide (method not named in Example 3)
T4 peptide: YRADEYQPPDGGSLVE

[5] = biological target: T2, hPCSK9 160-181 synthetic peptide; experiment: as above
[6] = biological target: T5, hPCSK9 163-174 synthetic peptide (human); experiment: as above
T5 peptide: PPRYRADEYQPP

T1 sequence (Q8NBP7 other isoform, or with tags, fused parts or gaps limits assumed): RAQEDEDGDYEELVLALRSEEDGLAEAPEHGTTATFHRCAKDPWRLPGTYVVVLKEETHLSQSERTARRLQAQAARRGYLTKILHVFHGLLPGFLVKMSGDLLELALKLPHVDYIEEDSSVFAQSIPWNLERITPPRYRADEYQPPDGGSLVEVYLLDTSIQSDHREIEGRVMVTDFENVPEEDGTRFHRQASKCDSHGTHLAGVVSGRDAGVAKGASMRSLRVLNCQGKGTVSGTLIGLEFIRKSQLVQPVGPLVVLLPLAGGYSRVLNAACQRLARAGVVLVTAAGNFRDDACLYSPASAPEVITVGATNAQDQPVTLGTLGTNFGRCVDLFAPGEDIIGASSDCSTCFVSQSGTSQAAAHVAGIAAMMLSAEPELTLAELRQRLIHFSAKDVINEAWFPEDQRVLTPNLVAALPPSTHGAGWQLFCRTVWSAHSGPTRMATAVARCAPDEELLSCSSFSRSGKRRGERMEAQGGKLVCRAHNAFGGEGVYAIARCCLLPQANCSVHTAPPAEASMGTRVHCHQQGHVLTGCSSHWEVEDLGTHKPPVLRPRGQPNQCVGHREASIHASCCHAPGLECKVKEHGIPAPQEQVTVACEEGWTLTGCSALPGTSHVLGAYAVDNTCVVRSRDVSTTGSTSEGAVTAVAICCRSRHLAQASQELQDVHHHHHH
Chain of Human PCSK9 (Q8NBP7 31-692 limits assumed): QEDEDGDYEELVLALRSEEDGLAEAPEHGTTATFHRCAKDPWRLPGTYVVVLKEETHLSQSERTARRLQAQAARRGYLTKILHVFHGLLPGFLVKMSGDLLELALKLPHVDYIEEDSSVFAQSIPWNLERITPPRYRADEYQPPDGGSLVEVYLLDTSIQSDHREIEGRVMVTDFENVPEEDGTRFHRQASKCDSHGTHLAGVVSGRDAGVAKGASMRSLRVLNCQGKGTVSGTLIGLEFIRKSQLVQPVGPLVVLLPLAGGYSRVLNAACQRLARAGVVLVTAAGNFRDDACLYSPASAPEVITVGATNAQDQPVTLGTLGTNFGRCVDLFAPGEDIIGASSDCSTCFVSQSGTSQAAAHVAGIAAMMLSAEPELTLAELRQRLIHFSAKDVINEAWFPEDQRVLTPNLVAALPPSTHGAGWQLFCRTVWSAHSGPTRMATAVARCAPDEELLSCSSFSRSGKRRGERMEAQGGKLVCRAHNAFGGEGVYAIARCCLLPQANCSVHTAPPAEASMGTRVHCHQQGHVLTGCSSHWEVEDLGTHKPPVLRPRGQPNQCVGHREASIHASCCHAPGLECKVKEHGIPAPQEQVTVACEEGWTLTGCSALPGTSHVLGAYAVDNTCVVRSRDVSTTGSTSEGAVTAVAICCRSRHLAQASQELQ
Chain of Rat PCSK9 (P59996 31-691 limits assumed): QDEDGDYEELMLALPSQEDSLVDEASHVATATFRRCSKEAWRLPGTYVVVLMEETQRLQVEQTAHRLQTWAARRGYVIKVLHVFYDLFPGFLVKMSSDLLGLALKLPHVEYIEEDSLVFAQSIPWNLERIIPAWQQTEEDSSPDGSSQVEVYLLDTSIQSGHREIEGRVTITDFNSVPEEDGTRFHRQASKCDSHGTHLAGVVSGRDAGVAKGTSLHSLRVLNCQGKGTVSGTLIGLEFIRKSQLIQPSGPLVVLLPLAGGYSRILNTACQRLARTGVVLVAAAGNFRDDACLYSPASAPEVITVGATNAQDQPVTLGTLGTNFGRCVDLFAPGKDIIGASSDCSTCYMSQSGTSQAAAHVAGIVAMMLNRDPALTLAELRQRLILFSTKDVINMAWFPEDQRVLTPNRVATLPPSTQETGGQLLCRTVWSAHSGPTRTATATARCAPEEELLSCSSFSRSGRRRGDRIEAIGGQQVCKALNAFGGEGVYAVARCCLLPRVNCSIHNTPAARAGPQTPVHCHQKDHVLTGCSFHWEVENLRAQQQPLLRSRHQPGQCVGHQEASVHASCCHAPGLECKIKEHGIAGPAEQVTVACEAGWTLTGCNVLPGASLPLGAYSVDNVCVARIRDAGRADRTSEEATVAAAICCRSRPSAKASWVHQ
Chain of Mouse PCSK9 (Q80W65 35-694 limits assumed): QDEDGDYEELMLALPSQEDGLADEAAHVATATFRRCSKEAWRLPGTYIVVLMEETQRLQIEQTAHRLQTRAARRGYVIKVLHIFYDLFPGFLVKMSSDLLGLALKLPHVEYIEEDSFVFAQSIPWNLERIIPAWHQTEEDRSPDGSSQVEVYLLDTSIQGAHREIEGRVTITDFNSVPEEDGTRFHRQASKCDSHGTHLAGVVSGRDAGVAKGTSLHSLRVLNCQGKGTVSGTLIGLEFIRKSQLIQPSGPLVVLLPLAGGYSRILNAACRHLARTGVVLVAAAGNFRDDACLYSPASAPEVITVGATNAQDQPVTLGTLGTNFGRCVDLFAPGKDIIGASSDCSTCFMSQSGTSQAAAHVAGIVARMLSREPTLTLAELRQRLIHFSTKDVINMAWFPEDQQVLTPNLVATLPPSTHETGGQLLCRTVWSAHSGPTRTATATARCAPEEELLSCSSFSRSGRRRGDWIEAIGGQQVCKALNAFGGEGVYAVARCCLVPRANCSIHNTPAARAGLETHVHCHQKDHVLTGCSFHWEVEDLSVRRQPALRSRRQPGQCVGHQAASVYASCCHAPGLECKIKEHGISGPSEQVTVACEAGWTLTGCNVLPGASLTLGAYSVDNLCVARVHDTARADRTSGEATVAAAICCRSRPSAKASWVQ
T3 sequence (Q8NBP7 31-692 limits assumed): as the sequence (Q8NBP7 31-692 limits assumed) above

B1: engineered PCSK9 antibody of Example 1 (antibody, human IgG4 S228P, kappa, F234A L235A, V domains shown)
VH: EVQLVESGGGLVKPGGSLRLSCAASGFPFSKLGMVWVRQAPGKGLEWVSTISSGGGYTYYPDSVKGRFTISRDNAKNSLYLQMNSLRAEDTAVYYCAREGISFQGGTYTYVMDYWGQGTLVTVSS
VL: DIVMTQSPLSLPVTPGEPASISCRSSKSLLHRNGITYSYWYLQKPGQSPQLLIYQLSNLASGVPDRFSGSGSGTDFTLKISRVEAEDVGVYYCYQNLELPLTFGQGTKVEIKR
notes: the controls used are IgG4; also called test PCSK9 antibody
Q: For B1, which Kd [1] is on record?
A: 25 nM

Q: What about the koff [1] of the same binder?
A: 0.0025 s⁻¹

Q: What about the kon [1] of the same binder?
A: 110000 M⁻¹ s⁻¹

Q: Does B1 bind (Rat PCSK9)?
A: no binding

Q: What about the Kd (mature hPCSK9 C-term His) of the same binder?
A: 1.8 nM

Q: What about the koff (mature hPCSK9 C-term His) of the same binder?
A: 0.00015 s⁻¹

Q: What about the kon (mature hPCSK9 C-term His) of the same binder?
A: 86700 M⁻¹ s⁻¹

Q: And the “koff fold difference against intact PCSK9” value [2]?
A: ≤ 2 fold

Q: Does B1 bind (Mouse PCSK9)?
A: no binding

Q: What about the IC50 [3] of the same binder?
A: ~0.09 nM

Q: And the Kd (Human PCSK9)?
A: 11 nM

Q: And the koff (Human PCSK9)?
A: 0.0012 s⁻¹

Q: What about the kon (Human PCSK9) of the same binder?
A: 120000 M⁻¹ s⁻¹

Q: And the Kd [4]?
A: 34 nM

Q: And the koff [4]?
A: 0.156 s⁻¹

Q: What about the kon [4] of the same binder?
A: 4.58e+06 M⁻¹ s⁻¹

Q: And the Kd [5]?
A: 0.17 nM

Q: What about the koff [5] of the same binder?
A: 0.000242 s⁻¹

Q: What about the kon [5] of the same binder?
A: 1.45e+06 M⁻¹ s⁻¹

Q: What about the Kd [6] of the same binder?
A: 3 nM

Q: What about the koff [6] of the same binder?
A: 0.00831 s⁻¹

Q: And the kon [6]?
A: 2.75e+06 M⁻¹ s⁻¹
